{
  "source": "paper doi:10.1101/2024.07.08.602401",
  "about": "(bioRxiv, 2024)",
  "binders": {"B1": {"name": "3H4v31 IgG1 (antibody, V domains shown)", "VH": "EVQLQESGPELVKPGASVKIPCKASGYTFTDYNMDWVKQSHGKSLEWIGDINPNNGGTIYNQKFKGKATLTVDKSSSTAYMELRSLTSEDTAVYYCARPDSAQYRWNWYFDVWGTGTTVTVSS", "VL": "DIVITQSPSSMYASLGERVTITCKASQDINSYLSWFQQKPGKSPKTLIYRANRLVDGVPSRFSGSGSGQDYSLTISSLEYEDMGIYYCLQYDEFPLTFGAGTKLELK"}, "B2": {"name": "wildtype 3H4 IgG1 (antibody, V domains shown)", "VH": "EVQLQESGPELVKPGASVKIPCKASGYTFTDYNMDWVKQSHGKSLEWIGDINPNNGGTIYNQKFKGKATLTVDKSSSTAYMELRSLTSEDTAVYYCARPDYYGSSYGWYFDVWGTGTTVTVSS", "VL": "DIVITQSPSSMYASLGERVTITCKASQDINSYLSWFQQKPGKSPKTLIYRANRLVDGVPSRFSGSGSGQDYSLTISSLEYEDMGIYYCLQYDEFPLTFGAGTKLELK"}},
  "key": {"HLA-E-VL9 complex": {"target": "HLA-E-VL9 complex (Homo sapiens, HLA-E*01:03, strain)", "assay": "BLI"}, "[1]": {"target": "HLA-E-… single chain trimer on transfected 293T cells (Homo sapiens HLA-E*01:03 assumed; …)", "assay": "flow cytometry on cells"}, "[2]": {"target": "HLA-E-[…] single chain trimer on transfected 293T cells (Homo sapiens HLA-E*01:03 assumed; …)", "assay": "flow cytometry on cells"}},
  "data": [
    {"binder": "B1", "values": [
      {"measurement": "Kd", "setting": "HLA-E-VL9 complex", "result": 11.5, "unit": "nM"}
    ]},
    {"binder": "B2", "values": [
      {"measurement": "binding result", "setting": "[1]", "result": "binds"},
      {"measurement": "binding result", "setting": "[2]", "result": "binds"}
    ]}
  ]
}
